Source: article PMC2377106 (2003)

T1: VEGFR2(ΔKD)m -20-809 (Homo sapiens, UniProt P35968)
T1 chain: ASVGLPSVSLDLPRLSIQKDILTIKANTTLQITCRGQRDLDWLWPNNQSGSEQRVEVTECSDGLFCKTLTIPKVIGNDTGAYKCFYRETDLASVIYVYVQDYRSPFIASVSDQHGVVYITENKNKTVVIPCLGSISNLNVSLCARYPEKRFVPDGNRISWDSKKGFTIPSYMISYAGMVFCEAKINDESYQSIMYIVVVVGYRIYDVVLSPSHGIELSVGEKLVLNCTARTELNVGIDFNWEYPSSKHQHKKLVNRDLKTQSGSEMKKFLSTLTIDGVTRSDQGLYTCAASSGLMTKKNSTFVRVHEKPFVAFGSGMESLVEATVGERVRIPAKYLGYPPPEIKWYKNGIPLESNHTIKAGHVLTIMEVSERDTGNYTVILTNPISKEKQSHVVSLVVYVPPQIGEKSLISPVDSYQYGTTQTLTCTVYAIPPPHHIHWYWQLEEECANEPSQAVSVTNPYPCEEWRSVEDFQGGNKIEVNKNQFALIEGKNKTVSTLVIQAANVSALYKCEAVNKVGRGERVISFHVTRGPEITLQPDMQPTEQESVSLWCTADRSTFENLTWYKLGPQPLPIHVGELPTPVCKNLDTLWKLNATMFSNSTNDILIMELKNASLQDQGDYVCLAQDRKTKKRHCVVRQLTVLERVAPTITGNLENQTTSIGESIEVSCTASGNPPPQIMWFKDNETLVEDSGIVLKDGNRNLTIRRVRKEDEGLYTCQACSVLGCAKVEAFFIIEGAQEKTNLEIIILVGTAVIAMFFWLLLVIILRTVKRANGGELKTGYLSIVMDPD

B1: CPG2(Q)3-VEGF109-H6 1-109 (protein)
chain: MTDRQTDTAPSPSYHLLPGRRRTVDAAASRGQGPEPAPGGGVEGVGARGVALKLFVQLLGCSRFGGAVVRAGEAEPSGAARSASSGREEPQPEEGEEEEEKEEERGPQW
modifications: fusion to C-terminus of CPG2(Q)3 (aa 23-415), H6 tag
B2: VEGF115-CPG2(Q)3-H6 1-115 (protein)
chain: MTDRQTDTAPSPSYHLLPGRRRTVDAAASRGQGPEPAPGGGVEGVGARGVALKLFVQLLGCSRFGGAVVRAGEAEPSGAARSASSGREEPQPEEGEEEEEKEEERGPQWRLGARK
modifications: fusion to N-terminus of CPG2(Q)3 (aa 23-415), H6 tag
B3: [125I]VEGF (protein)
chain: MTDRQTDTAPSPSYHLLPGRRRTVDAAASRGQGPEPAPGGGVEGVGARGVALKLFVQLLGCSRFGGAVVRAGEAEPSGAARSASSGREEPQPEEGEEEEEKEEERGPQWRLGARKPGSWTGEAAVCADSAPAARAPQALARASGRGGRVARRGAEESGPPHSPSRRGSASRAGPGRASETMNFLLSWVHWSLALLLYLHHAKWSQAAPMAEGGGQNHHEVVKFMDVYQRSYCHPIETLVDIFQEYPDEIEYIFKPSCVPLMRCGGCCNDEGLECVPTEESNITMQIMRIKPHQGQHIGEMSFLQHNKCECRPKKDRARQEKKSVRGKGKGQKRKRKKSRYKSWSVPCGPCSERRKHLFVQDPQTCKCSCKNTDSRCKARQLELNERTCRCDKPRR
modifications: 125I-labelled VEGF
B4: VEGF161-CPG2(Q)3-H6 1-161 (protein)
chain: MTDRQTDTAPSPSYHLLPGRRRTVDAAASRGQGPEPAPGGGVEGVGARGVALKLFVQLLGCSRFGGAVVRAGEAEPSGAARSASSGREEPQPEEGEEEEEKEEERGPQWRLGARKPGSWTGEAAVCADSAPAARAPQALARASGRGGRVARRGAEESGPPH
modifications: fusion to N-terminus of CPG2(Q)3 (aa 23-415), H6 tag

Legend:
VEGFR2(ΔKD)m -20-809 [1] = molecular target: T1, VEGFR2(ΔKD)m -20-809; assay: competition RIA
VEGFR2(ΔKD)m -20-809 [2] = molecular target: T1, VEGFR2(ΔKD)m -20-809; assay: ELISA
VEGFR2(ΔKD)m -20-809 [3] = molecular target: T1, VEGFR2(ΔKD)m -20-809; assay: solid-phase radioligand binding

Binder | Kd (VEGFR2(ΔKD)m -20-809 [1]) [nM] | Kd (VEGFR2(ΔKD)m -20-809 [2]) [nM] | Kd (VEGFR2(ΔKD)m -20-809 [3]) [nM]
B1 | 1.3 | 0.75 | 
B2 | 9.6 | 0.51 | 
B3 |  |  | 0.51
B4 | 3.3 | 1.06 | 
